The target of one assay is pcd15_mouse Pcdh15 (UniProt Q99PJ1).
Sequence of pcd15_mouse Pcdh15 (Q99PJ1 whole entry): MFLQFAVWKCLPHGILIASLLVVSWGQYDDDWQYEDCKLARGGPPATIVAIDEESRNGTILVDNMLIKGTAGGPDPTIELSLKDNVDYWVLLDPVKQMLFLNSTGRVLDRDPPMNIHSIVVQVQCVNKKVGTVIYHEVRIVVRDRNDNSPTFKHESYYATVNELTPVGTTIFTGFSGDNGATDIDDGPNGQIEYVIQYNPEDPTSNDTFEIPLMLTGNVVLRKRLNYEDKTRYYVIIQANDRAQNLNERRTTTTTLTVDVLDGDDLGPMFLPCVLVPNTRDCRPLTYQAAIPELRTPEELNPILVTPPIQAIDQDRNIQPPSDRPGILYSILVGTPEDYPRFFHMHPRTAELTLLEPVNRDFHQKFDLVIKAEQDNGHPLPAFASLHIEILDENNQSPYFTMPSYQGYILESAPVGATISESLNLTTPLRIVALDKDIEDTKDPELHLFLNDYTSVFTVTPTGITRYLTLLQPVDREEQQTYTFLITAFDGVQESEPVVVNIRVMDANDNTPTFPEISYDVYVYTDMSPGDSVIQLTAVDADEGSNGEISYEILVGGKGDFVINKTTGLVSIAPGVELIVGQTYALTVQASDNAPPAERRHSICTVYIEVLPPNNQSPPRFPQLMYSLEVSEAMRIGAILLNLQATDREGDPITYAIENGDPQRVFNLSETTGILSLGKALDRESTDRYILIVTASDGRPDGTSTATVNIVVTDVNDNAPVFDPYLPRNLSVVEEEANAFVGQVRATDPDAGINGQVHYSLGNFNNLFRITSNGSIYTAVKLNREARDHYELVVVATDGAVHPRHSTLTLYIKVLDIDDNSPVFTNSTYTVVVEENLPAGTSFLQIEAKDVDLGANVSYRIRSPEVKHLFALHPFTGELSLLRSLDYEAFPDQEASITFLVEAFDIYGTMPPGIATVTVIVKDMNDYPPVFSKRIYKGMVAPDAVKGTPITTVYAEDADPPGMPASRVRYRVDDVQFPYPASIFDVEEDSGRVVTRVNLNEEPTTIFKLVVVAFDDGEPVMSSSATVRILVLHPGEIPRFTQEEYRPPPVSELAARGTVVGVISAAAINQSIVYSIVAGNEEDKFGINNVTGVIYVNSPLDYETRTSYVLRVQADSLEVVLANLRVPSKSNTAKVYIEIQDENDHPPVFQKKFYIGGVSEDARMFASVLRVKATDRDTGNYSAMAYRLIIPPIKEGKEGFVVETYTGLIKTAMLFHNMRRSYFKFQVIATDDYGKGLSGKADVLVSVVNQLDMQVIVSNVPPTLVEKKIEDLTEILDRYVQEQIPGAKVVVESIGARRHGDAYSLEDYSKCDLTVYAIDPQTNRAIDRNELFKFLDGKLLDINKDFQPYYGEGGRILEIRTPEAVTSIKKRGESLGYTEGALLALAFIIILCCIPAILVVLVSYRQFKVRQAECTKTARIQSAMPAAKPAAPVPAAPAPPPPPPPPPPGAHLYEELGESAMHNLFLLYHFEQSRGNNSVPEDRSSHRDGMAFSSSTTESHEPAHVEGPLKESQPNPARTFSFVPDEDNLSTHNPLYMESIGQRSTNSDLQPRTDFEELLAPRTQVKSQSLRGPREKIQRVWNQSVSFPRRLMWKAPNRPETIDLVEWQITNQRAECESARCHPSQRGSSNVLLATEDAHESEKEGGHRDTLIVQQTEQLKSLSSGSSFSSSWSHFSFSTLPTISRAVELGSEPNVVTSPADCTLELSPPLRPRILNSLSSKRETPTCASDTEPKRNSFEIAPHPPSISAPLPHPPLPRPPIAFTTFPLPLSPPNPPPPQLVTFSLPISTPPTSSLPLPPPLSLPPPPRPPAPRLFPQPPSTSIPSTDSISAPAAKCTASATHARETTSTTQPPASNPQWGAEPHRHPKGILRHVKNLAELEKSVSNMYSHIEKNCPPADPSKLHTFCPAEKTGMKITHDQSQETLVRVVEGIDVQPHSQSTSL

As to “Protocadherin-15 (Mus musculus), Q99PJ1 E35I;D36A”, the “effect of a mutation on the interaction” value with Cdh23, Q99PF4-1 is given as “decreasing interaction”.
With “Cadherin-23 (Mus musculus), Q99PF4-1 R27I”, in the assay with pcd15_mouse Pcdh15, the “effect of a mutation on the interaction” value is “decreasing interaction”.
As to “Cadherin-23 (Mus musculus), Q99PF4-1 N26I;R27I”, the “effect of a mutation on the interaction” value with pcd15_mouse Pcdh15 is recorded as “decreasing interaction”.
Consider “Cadherin-23 (Mus musculus), Q99PF4-1 N26I”, for which the “effect of a mutation on the interaction” value with pcd15_mouse Pcdh15 was “decreasing interaction”.
